Legend:
[1] = target: full length collagen (with foldON), expressed in Pichia strain PP654 (vector MMV-398); assay: cell-based or functional assay
[2] = target: collagen secreted by strains PP766 and PP767 along with mimiP4H
[3] = target: collagen substrate of the in-vitro hydroxylation reaction with purified secreted mimiP4H
[4] = target: purified collagen derived from strain PP685, added to fermentation supernatant

Row | Molecule | hydroxylation level of collagen (mass spec of gel band; in vivo, PP654 in fermenters) [1] | hydroxylation of secreted collagen in fermentation supernatant [2] | %HyP, colorimetric assay, in-vitro hydroxylation reaction [3] | hydroxylation of added purified collagen in unpurified fermentation supernatant [4]
1 | mimi-virus P4H (monomeric prolyl 4-hydroxylase), intracellular, expressed in Pichia strain PP654 from vector MMV-580 (enzyme) | 17% |  |  | 
2 | secreted mimi-virus P4H from Pichia (vector MMV-644; strains PP765, PP766, PP767), with 6X His tag at the C-terminus (protein) VLSKSCVSHFRNVGSLNSRDVNLKDDFSYANIDDPYNKPFVLNNLINPTKCQEIMQFANGKLFDSQVLSGTDKNIRNSQQMWISKNNPMVKPIFENICRQFNVPFDNAEDLQVVRYLPNQYYNEHHDSCCDSSKQCSEFIERGGQRILTVLIYLNNEFSDGHTYFPNLNQKFKPKTGDALVFYPLANNSNKCHPYSLHAGMPVTSGEKWIANLWFRERKFSHHHHHH |  | An increase in hydroxylation was observed for both the secreted collagen and added purified collagen | Ni-NTA purified mimiP4H showed 24% hydroxylation | All reactions showed an increase in the hydroxylation over the pre-reaction levels (~3%)
